Assay results from patent US20220153832A1 (PIONYR IMMUNOTHERAPEUTICS, published 2022).
One block for each binder: values may come before it.

How the values were obtained:
[1] = biological target: T1, N-terminally polyhistidine tagged human MARCO ECD (147-520), recombinant (human, UniProt Q9UEW3 147-520); test: Biacore, recombinant human MARCO; control sample
T1 construct: also called PI-RG-3000; recombinant human MARCO; not shown: N-terminal polyhistidine tag
T1 sequence: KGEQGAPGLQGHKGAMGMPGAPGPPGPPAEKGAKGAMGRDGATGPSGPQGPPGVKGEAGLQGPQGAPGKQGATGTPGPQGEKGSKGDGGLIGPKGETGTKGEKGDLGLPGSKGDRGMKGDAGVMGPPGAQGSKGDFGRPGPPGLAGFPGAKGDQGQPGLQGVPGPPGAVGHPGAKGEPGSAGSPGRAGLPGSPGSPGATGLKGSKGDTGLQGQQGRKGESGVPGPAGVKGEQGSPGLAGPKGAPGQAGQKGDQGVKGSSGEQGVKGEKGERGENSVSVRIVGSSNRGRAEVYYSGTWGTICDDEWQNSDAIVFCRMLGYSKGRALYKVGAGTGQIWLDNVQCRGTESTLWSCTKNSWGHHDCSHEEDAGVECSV

[2] = biological target: T1, N-terminally polyhistidine tagged human …; test: Biacore; sample oxidized with 1 mM AAPH, 6 hrs, 40 C
Method: (PBS)+1 mM AAPH for 6 h, 0.5 and 1.5% H₂O₂ in PBS for 24 h, which was compared to a previous experiment at 40° C. (PBS)+1 mM AAPH for 6 h. Post treatment the samples were analyzed by LC-MS/MS which identified the % modification on isolated peptides derived from the antibody after trypsin digest.
Binding of the stressed samples to recombinant human MARCO was assessed by Biacore.

[3] = biological target: T2, Mouse MARCO, full length, on cells (mouse, UniProt Q60754 1-518); test: flow cytometry, 293T cells expressing mouse MARCO
T2 construct: whole, on cells; the cell type is named under assay; also called muMARCO; MuMARCO
T2 sequence (looked up): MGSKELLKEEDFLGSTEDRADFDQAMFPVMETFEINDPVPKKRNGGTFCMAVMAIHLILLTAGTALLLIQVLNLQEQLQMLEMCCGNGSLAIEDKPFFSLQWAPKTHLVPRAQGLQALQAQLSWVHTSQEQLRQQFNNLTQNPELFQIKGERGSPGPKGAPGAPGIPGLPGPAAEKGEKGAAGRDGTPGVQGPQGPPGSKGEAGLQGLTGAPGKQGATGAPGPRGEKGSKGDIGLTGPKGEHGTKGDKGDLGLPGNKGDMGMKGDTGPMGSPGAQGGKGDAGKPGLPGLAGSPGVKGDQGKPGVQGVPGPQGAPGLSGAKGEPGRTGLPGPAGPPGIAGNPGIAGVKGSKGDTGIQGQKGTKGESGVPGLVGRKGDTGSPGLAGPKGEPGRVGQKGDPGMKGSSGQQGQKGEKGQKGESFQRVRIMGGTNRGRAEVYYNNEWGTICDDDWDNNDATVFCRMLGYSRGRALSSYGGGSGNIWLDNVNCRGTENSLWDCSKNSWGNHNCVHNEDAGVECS

[4] = biological target: T3, recombinant cynomolgus MARCO protein (cynomolgus, UniProt A0A2K5X0Z2 65-519); test: KD (nM) Cyno; method not given
T3 construct: Construct not described; also called cyno MARCO; cynoMARCO
T3 sequence: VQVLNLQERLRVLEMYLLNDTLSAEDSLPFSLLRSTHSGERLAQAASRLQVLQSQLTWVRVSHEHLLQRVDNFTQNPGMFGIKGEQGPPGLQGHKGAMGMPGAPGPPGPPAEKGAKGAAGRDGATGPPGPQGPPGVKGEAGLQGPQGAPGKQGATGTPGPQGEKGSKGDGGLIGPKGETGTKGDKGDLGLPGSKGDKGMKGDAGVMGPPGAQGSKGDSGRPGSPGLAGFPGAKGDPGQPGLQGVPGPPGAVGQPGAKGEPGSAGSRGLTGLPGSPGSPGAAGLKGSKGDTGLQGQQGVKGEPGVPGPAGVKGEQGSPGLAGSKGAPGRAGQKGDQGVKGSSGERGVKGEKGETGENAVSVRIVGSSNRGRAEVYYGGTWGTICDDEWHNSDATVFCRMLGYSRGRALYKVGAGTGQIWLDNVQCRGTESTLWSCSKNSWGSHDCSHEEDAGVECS

[5] = biological target: T4, N-terminal his-tagged mouse MARCO protein, recombinant (mouse, UniProt Q60754 150-518); test: Biacore
T4 construct: The entry holds the His tag, the CLD and the SRCR domain; also called mMARCO (RG3016); PI-RG-3016
T4 sequence: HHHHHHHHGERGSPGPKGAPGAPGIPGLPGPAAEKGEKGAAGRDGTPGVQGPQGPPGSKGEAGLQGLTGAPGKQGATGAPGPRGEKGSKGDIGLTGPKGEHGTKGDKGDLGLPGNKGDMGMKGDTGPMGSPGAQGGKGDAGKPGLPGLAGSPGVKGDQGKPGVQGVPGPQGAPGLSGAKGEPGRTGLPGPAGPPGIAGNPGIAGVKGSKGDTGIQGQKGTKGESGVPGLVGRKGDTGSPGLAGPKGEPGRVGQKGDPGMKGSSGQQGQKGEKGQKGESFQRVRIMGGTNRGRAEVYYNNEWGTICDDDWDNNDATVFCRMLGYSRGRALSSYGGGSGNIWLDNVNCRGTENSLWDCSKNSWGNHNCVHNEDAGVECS

B1: PI-3015-AB (antibody, human IgG1, kappa)
heavy: not shown
light: DIQMTQSPSSLSASVGDRVTITCRASEGISNDLAWYQQKPGKAPKLLIYAASRLQSGVPSRFSGSGSGTDYTLTISSMQPEDFATYYCQQSYKYPLTFGQGTKLEIKRTVAAPSVFIFPPSDEQLKSGTASVVCLLNNFYPREAKVQWKVDNALQSGNSQESVTEQDSKDSTYSLSSTLTLSKADYEKHKVYACEVTHQGLSSPVTKSFNRGEC
- Kd [1]: 0.97 nM
- Kd [2]: 1.1 nM

B3: PI-3010-AB (antibody, human IgG1, kappa)
heavy: not shown
light: DIQMTQSPASLSTSLGETVSIECLASEGISNDLAWYQQKSGKSPQLLIYAASRLQDGVPSRFSGSGSGTRYSLKISGMQPEDEADYFCQQSYKYPLTFGSGTKLEIKRTVAAPSVFIFPPSDEQLKSGTASVVCLLNNFYPREAKVQWKVDNALQSGNSQESVTEQDSKDSTYSLSSTLTLSKADYEKHKVYACEVTHQGLSSPVTKSFNRGEC
- Kd [4]: 0.26 nM

The next lines start with the values.

- binding result [3]: no binding
B2: PI-HX-3031 (antibody)
heavy: QVQLKESGPGLVQPSQTLSLTCTVSGFSLTSYHVSWVRQPPGKGLEWMGAIWTGGSIAYNSLLKSRLSISRDTSKSQVFLKMNSLQTEDTATYYCARDLSDYYSSYTSFDYWGQGVMVTVSTAETTAPSVYPLAPGTALKSNSMVTLGCLVKGYFPEPVTVTWNSGALSSGVHTFPAVLQSGLYTLTSSVTVPSSTWSSQAVTCNVAHPASSTKVDKKIVPRECNPCGCTGSEVSSVFIFPPKTKDVLTITLTPKVTCVVVDISQNDPEVRFSWFIDDVEVHTAQTHAPEKQSNSTLRSVSELPIVHRDWLNGKTFKCKVNSGAFPAPIEKSISKPEGTPRGPQVYTMAPPKEEMTQSQVSITCMVKGFYPPDIYTEWKMNGQPQENYKNTPPTMDTDGSYFLYSKLNVKKETWQQGNTFTCSVLHEGLHNHHTEKSLSHSP
light: DIQMTQSPASLSTSLGETVSIECLASEGISNDLAWYQQKSGKSPQLLIYAASRLQDGVPSRFSGSGSGTRYSLKISGMQPEDEADYFCQQSYKYPLTFGSGTKLEIKRADAAPTVSIFPPSTEQLATGGASVVCLMNNFYPRDISVKWKIDGTERRDGVLDSVTDQDSKDSTYSMSSTLSLTKADYESHNLYTCEVVHKTSSSPVVKSFNRNEC
notes: Parental rat hybridoma, rat IgG2a

- Kd [5]: < 0.02 nM
B4: PI-HX-3061 (antibody, rat IgG2a)
heavy: EVQLVESGGGLVQPGSSLKLSCVASKFTFSNYGMNWIRQAPKKGLEWIALIYYNSNNKYYADSVKGRFTISRDNSKNTLYLEMNSLRSEDTAMYYCAKSLTGGSDYFDSWGQGVMVTVSSAETTAPSVYPLAPGTALKSNSMVTLGCLVKGYFPEPVTVTWNSGALSSGVHTFPAVLQSGLYTLTSSVTVPSSTWPSQTVTCNVAHPASSTKVDKKIVPRNCGGDCKPCICTGSEVSSVFIFPPKPKDVLTITLTPKVTCVVVDISQDDPEVHFSWFVDDVEVHTAQTRPPEEQFNSTFRSVSELPILHQDWLNGRTFRCKVTSAAFPSPIEKTISKPEGRTQVPHVYTMSPTKEEMTQNEVSITCMVKGFYPPDIYVEWQMNGQPQENYKNTPPTMDTDGSYFLYSKLNVKKEKWQQGNTFTCSVLHEGLHNHHTEKSLSHSP
light: DVQMTQSPSYLAASPGESVSISCKASKSIGTFLAWYQEKPEKTNKLLIYSGSTLQSGTPSRFSGSGSGTDFTLTIRNLEPEDFAVYYCQQHDEYPFTFGSGTKLEIKRADAAPTVSIFPPSTEQLATGGASVVCLMNNFYPRDISVKWKIDGTERRDGVLDSVTDQDSKDSTYSMSSTLSLTKADYESHNLYTCEVVHKTSSSPVVKSFNRNEC
notes: Parental rat hybridoma, rat IgG2a; cross reactive with human and mouse MARCO
